According to the supplement of paper PMC10567573:

B1: IFRG15 (parent)
chain: INRADYCPECYPDNPANRSLVLPW

Variants of: B1
Test: protein stability index of a GFP-peptide fusion (GPS, HEK-293T) (PSI 1-6); higher = more stable
Conditions: c terminus: a fixed tail appended
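Further: lentivirally expressed fusions sorted by FACS into six bins by GFP to DsRed ratio, PSI derived from sequencing read proportions per bin multiplied by bin number.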

Protein stability index of substitutions, site by site:
L20: Y 1.86, I 2.27, T 2.57, H 2.4, S 2.28, N 2.78, D 2.73, G 2.48
E9: V 3.07, G 1.66, N 1.92, Y 1.31, F 1.78, P 3.15, Q 1.62
P8: C 2.07, A 1.27, D 2.64, L 1.85, I 1.5, R 1.99, W 2.02, E 2.34
R18: E 2.13
V21: N 2.3, W 1.29, F 1.54, A 2.54, Q 2.12, E 2.29, P 2.92
C10: W 2.07, A 2.41, K 2.59, L 2.31, H 2.6, R 2.29, D 3.65, V 2.32, N 2.62, P 3.17, Y 2.31
N17: R 1.51, W 1.6, P 1.89, Y 1.74
Y11: L 1.83, D 3.28, A 1.96, P 3.15, W 2.1, E 2.73, R 2.72, Q 2.58, N 2.23, M 2.15, V 2.8
P23: S 2.83, C 1.67, D 2.92, K 1.71, M 2.5, I 2.89, Q 1.87, W 2.4
D13: N 2.08, K 1.68, I 1.71, W 2.18, T 2.37, Y 1.57, H 2.07, L 2.53
P12: Y 2.26, K 2.1, F 1.78, S 2.03, N 1.66, D 2.7, E 2.46, G 2.69, Q 2.11
A16: G 2.04, D 2.37, Q 2.23, R 1.67, M 1.85
N2: S 1.82, V 1.91, T 1.78, L 1.79, F 1.55, M 1.88, E 2.11, Q 2.03
W24: I 1.9, R 1.77, A 2.19, F 2.3, Q 2.24, H 2.37
A4: H 1.65, N 2.2, D 1.95, W 1.68, E 2.48, P 2.47
C7: H 2.13, D 3.72, T 2.68, V 2.34, F 2.28, Y 2.41, L 1.97, A 2.58
P15: Q 2.1, A 2.9, V 1.51, R 2.07, M 2.19
D5: W 1.91, Y 1.15, L 1.6, T 1.55, Q 1.93, R 2.39
N14: Q 1.86, F 1.71, C 2.2, D 2.52, H 2.52
S19: Q 2, V 1.41, I 1.72, L 2.16, E 2.22, G 1.82, F 1.27
L22: S 1.93, R 2.36, I 1.72, W 1.65, E 2.44, Y 2.17
Y6: M 2.21, D 2.9, C 2.67, P 3.33, I 2.24
R3: I 1.54, Y 1.9, M 1.91, A 2.42, D 2.59, T 2.71, C 1.66, N 2.36, F 2.12
I1: H 2.44, G 2.05, D 2.75, Q 2.26, W 1.33, Y 1.49, T 1.74, F 2.34, K 2.42
